Where a chain is given by its changes, count along the chain named.
How the values were obtained:
Conditions in all cases: 20 mM Tris pH 7.5, 1 mM CaCl2, 1 mM DTT, 10 ug/ml poly(dI-dC), 100 ug/ml BSA, 37 C, 10 min; probe 0.05 uM (0.1 uM restricted)
[1] = system: T1, CovR D53E D52E (Streptococcus salivarius HSISS4), ORF:ee641105; experiment: competition
T1 sequence: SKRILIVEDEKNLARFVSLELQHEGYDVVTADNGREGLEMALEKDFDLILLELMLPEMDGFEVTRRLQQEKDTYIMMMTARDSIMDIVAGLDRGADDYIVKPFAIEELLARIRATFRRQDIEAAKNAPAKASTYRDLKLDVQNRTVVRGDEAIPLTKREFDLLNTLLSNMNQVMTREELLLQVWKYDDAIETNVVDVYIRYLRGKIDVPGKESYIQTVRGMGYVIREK

[2] = system: T1, CovR D53E D52E (Streptococcus salivarius HSISS4), ORF:ee641105; experiment: EMSA
[3] = system: T2, CovR WT (Strep-tagged) (Streptococcus salivarius HSISS4), ORF:ee641105; experiment: EMSA
T2 sequence: T1 sequence with E52D

[4] = system: T3, CovR D53A D52A (Streptococcus salivarius HSISS4), ORF:ee641105; experiment: EMSA
T3 sequence: T1 sequence with E52A

Sequence: AAAAATAATGAGCACTTAAAAGAATGGGATAAGGACAATATCAAAAATGTTGTTCTATCTCATTCTTTTTGTTTGAAACAGTTAATATGGTAGAGGCGTTTTTACTAGTAGCGTATGCTATAATAGAAAGATAGAAAGGAGGCCTTCATG (double strand) [PdnaE unlabeled competitor]
- binding [1]: no binding

Sequence: CAAGAGACACTCCTTTATTTCGAAATTTTAAAAACATTATATCATAATTATAATATAATTAATATACAGTTAATGCATTTTTAACAGAACAATAGTGAAAATAAGCTATTTTTATACATTTTATATAGGAAAGACCTTCCTTTGTATCAA (double strand) [PcomR unlabeled competitor]
- binding [1]: binds

Sequence: CCTGTAGTTCCCTTACATACAGTGCGTTACTTTGAGAATGCAGACCGCTCGACGATTCAGATGTTGCATGCCATCTCGCAAAACGTTTCCTTGTCAGAGGCCTCTATTTGTCCTATGAATCAGCTTCTTTTCTCGCCTCAAGAAATGGAA (double strand) [CDSdnaE unlabeled competitor]
- binding [1]: no binding

Sequence: TTGATACAAAGGAAGGTCTTTCCTATATAAAATGTATAAAAATAGCTTATTTTCACTATTGTTCTGTTAAAAATGCATTAACTGTATATTAATTATATTATAATTATGATATAATGTTTTTAAAATTTCGAAATAAAGGAGTGTCTCTTG (double strand) [PcomR HSISS4 (150 bp)]
- binding [2]: binds
- binding [3]: binds
- binding [4]: binds more weakly

Source: article PMC8725580
